Measured values from article PMC5006643.

Molecular target: pV2α-Tys, tyrosine-sulfated 18-mer V2 mimetic peptide (aa. 168-185 of HIV-1 BaL gp120) (HIV-1 (isolate BaL))
Assay: SPR

| Substance | Kd [nM] | koff [s⁻¹] | kon [M⁻¹ s⁻¹] |
| --- | --- | --- | --- |
| recombinant monomeric gp120 (HIV-1 strain BaL) (natural protein) | 79.1 | 0.00189 | 23900 |
| BG505 SOSIP.664 trimer pre-treated with the CD4 mimic CD4-M48U (from UniProt Q2N0S6 1-860; Q2N0S6 1-860) (complex) | 161 | 0.005 | 31000 |
| gp120 (BaL) pre-complexed with the CD4 mimic CD4-M48U | 69.1 | 0.00334 | 48300 |
